test: soluble on expression in E. coli; label from the status in PepcDB or PDB records

Soluble on expression in E. coli, soluble:
SLRRVLMLEGCAQPTLSPNTNAATARVLDRLGISVMPANEAGCCGAVDYHLNAQEKGLARARNNIDAWWPAIEAGAEAILQTASGCGAFVKEYGQMLKNDALYADKARQVSELAVDLVELLREEPLEKLAIRGDKKLAFHCPCTLQHAQKLNGEVEKVLLRLGFTLTDVPDSHLCCGSAGTYALTHPDLARQLRDNKMNALESGKPEMIVTANIGCQTHLASAGRTSVRHWIEIVEQALEKE
MKTVVIGAGLGGLLSAARLSKAGHEVEVFERLPITGGRFTNLSYKGFQLSSGAFHMLPNGPGGPLACFLKEVEASVNIVRSEMTTVRVPLKKGNPDYVKGFKDISFNDFPSLLSYKDRMKIALLIVSTRKNRPSGSSLQAWIKSQVSDEWLIKFADSFCGWALSLKSDEVPVEEVFEIIENMYRFGGTGIPEGGCKGIIDALETVISANGGKIHTGQEVSKILIENGKAAGIIADDRIHDADLVISNLGHAATAVLCSEALSKEADAAYFKMVGTLQPSAGIKICLAADEPLVGHTGVLLTPYTRRINGVNEVTQADPELAPPGKHLTMCHQYVAPENVKNLESEIEMGLEDLKEIFPGKRYEVLLIQSYHDEWPVNRAASGTDPGNETPFSGLYVVGDGAKGKGGIEVEGVALGVMSVMEKVLGLEHHHHHH
MDYKVSVLIVCYNQEKYIKKALESVLSQKVNFNYEIVVCDDCSSDRTFNILQEYKSKLGSKLNLIRNYKNLGITLNYKNGFKNCKGEYIAVLEGDDYWIQKSKLKRQVSFLESNRDCSLVFNKIVLDYGDEKINNLIYPFNDIRKKFSARELVRSNFIQNFSCCMYRKSSIRKLRESIYDMVVYDWMFNMAVAQFGLIGYIPNYMTSHRILKSGLWSGKSKMENLQMISKCIDQYDSFFKYKYRKEFSQNKQEVLQALRRLVMVNENGLEHHHHHH
MTAHRSVLLVVHTGRDEATETARRVEKVLGDNKIALRVLSAEAVDRGSLHLAPDDMRAMGVEIEVVDADQHAADGCELVLVLGGDGTFLRAAELARNASIPVLGVNLGRIGFLAEAEAEAIDAVLEHVVAQDYRVEDRLTLDVVVRQGGRIVNRGWALNEVSLEKGPRLGVLGVVVEIDGRPVSAFGCDGVLVSTPTGSTAYAFSAGGPVLWPDLEAILVVPNNAHALFGRPMVTSPEATIAIEIEADGHDALVFCDGRREMLIPAGSRLEVTRCVTSVKWARLDSAPFTDRLVRKFRLPVIGWRGK
MFEDLLQTKRLIKSYYYYPKLVLVINIAEYLYSKGRDVCIFNFDKIKWEYYPYNLNFHMKCNERSENIIFEAEDESEIPNNFSLVTSIKKLNLGIPQSEIQKLDQNLFKINIDNKIYLFRIIEGKIVEEKIKGLSEEIINILREYNELSLKEIVDILYHKTNSSRDNIRKEIYFLKDIGVIEIKNGKVLLNNNSWLKR
GWLDLAPSTQVDTETSINVLSDIEFTLNGIYSTMQSSDAYSGRLVYYGDVTGDDMQAVSSTKRTGNYYRFNFTKDNGPSSHWSYLYSIIQNCNLILMNVDKLSIDEDETEYKNDLKGQALAIRGMALFDLTRIFGYPYLKDNGASLGVPIVKELSTIDSKPARNTVAECYTEIISDLKNSTELLSGDFNKGKVNRWAAMTLLSRVYLYKGEYNEALTMAENAIKGAEKEGYALWTNEEYPTAWGNDASASNPGEILFEIVNLTTDSPGKESMGYLNSYNGYDDMCITCSFYQLLKKDPKDVRLKILSFDKKYYAYVNKYQPQQGENITDANIPLIRLSEAYLNAAEAAVQTGDNAKAVKYLNSIVQRANPENSVEGKTLTLENVLDERRKELVAEGHRMYDVIRNGMTVKRIDVKDSDINKTKHNTAYMEYDWNFHKILLPIPKKEMDANPNMKQNPGYVD
MSLSDLITLAQLSQGYRYNSDSLILADFILKQGIKGAVFDVGAGCGIIGILLKKNIANLSLSLIDIQKENIELIEKNLKSNKIQGDIFHDDFNQFQIIKKFDFIVCNPPFYRQGAYKSEDQHKAISKFQEFLPLHSFLAKTNSMLKPNGTLYFCYEALALDEICFILKDMKMKITKLCFVHTHQSKKARLVLIQVKKGSKSPCEILPPFFVYENEILSKQMQEIHLRFRLKSYDEGHHHHHH
GAMGNLRLIGVPESDVENGTKLENTLQDIIQENFPNLARQANVQIQEIQRTPQRYSSRRATPRHIIVRFTKVEMKEKMLRAAREKGRVTLKGKPIRLTVD
MKWGFRWYGAAGDAIPLKHIRQIPGITGVVGTLLNKLPGDVWTVAEIQALKQSVEQEGLALLGIESVAIHDAIKAGTDQRDHYIDNYRQTLRNLGKCGISLVCYSFKPIFGWAKTDLAYENEDGSLSLLFDQAVVENMQPEDMYQLIHSQSKGFRLPGWEEERLQQFQELKAMYAGVTEEDLVENLRYFLERVIPVCEEENIKMGIHPDDPPWEIFGLPRITKNLADLKRILSLVDSPANGITFCTGSLGADPTNDLPTMIREIGHRINFVHFRNVKYLGEHRFEETAHPSVAGSLDMAELMQALVDVGYEGVIRPDHGRAIWDEKAMPGYGLYDRAMGLTYIQGLYEATKAKQNRKLEHHHHHH
GHMKCPVCHQGEMVSGIKDIPYTFRGRKTVLKGIHGLYCVHCEESIMNKEESDAFMAQVKAFRASVNAETVAPEFIVKVRKKLSLTQKEASEIFGGGVNAFSRYEKGNAQPHPSTIKLLRVLDKHPELLNEIR
MSLRMNAMKIISVNVGQPTALQVGQRTAVSGIRKHPVPGRVQVGEKGLEGDHVLNRRYHGGPDQAVYVYTREDYDHWTELLGRALEPGAFGENVLISGAESAEVRVGERFLLGAVEIEVTAPRLPCSTLGARMEDAGFVKRFKAARRPGFYARVLQSGDIGRGDPVTRTPAPDGAPTIGELFDADFAKSHDPAELRAWLTFPLGKRQRKEVEKWLAKAEGEGHHHHHH

Soluble on expression in E. coli, not soluble:
MSELLEKAERLKTASQTLAMLSAEEKNAALEQIAQTLDRERAFILQENEKDMAQGCKQGLSPALLDRLQLTNERLDQIIDGVRQVASLPDPVGEIIAEWTRPNGLRIQTVRVPLGVIGMVYEARPNVTVDAASLCLKTGNAVLLRGSTSALHSNKALVRVMKEALRTTTVPETAIELLEDTSRETAQHMFRLNEYLDVLIPRGGAGLIRSVVENATVPVLETGVGNCHIFIDESAERQMAIDIVLNAKLQRPSVCNAVETVLIHERWPYADDLLETLHARGVELRGDQRLASAHPFVSEATEDDWYTEYLAPILAVKLVADVDEAIGHIRRYGTKHSEAIITENEANVRRFFQGVDAAVLYHNASTRFTDGEQFGYGAEIGISTQKLHARGPMGLVAITTTKSLVYGTGQIRE
MEDELEKYKRENADLKKEIERLKNSSASNTYKVIFEASPDILIQLNADYKIIVIHIPNIEEERVNTVVGKDIFDVTPEYTHVKMKNALTSVFRDGEVVKYFSEGETMGSYRYYDNYLSPIKDAEGNITTVYFRSRDIT
MSVFSLKIDIADNKFFNGETSPLFSQSQAKLARQFHQKIAGYRPTPLCALDDLANLFGVKKILVKDESKRFGLNAFKMLGGAYAIAQLLCEKYHLDIETLSFEHLKNAIGEKMTFATTTDGNHGRGVAWAAQQLGQNAVIYMPKGSAQERVDAILNLGAECIVTDMNYDDTVRLTMQHAQQHGWEVVQDTAWEGYTKIPTWIMQGYATLADEAVEQMREMGVTPTHVLLQAGVGAMAGGVLGYLVDVYSPQNLHSIIVEPDKADCIYRSGVKGDIVNVGGDMATIMAGLACGEPNPLGWEILRNCATQFISCQDSVAALGMRVLGNPYGNDPRIISGESGAVGLGVLAAVHYHPQRQSLMEKLALNKDAVVLVISTEGDTDVKHYREVVWEGKHAVAP
MYLSRITLHTSELSPAQLLHLVERGEYVMHQWLWDLFPGSKERQFLYRREELQGAFRFFVLSQEQPAASAIFDVQTRPFAPTLSAGQTLRFNLRANPTVCKNGKRHDLLMEAKRQRKTQGDSQDIWSYQQQAALTWLARQGEQNGFTLREASVDAYRQQQIRRGKDRQMIQFSSVDYTGVLVINEPALFLQRLAQGFGKSRAFGCGMMMIKPGDDA
MGSDKIHHHHHHMKTFLESLKFPVQEVNKKSSGEKGPGRPPYWEMVFYWTRKPLVGARSVIAGALLPENVDENLFKAAVRLSSPTPHRENPQIPAEFAKYFEGKKLLDPFAGFGSIPLEGLRLGLDVTAVELLPTTYIFLKAVLEYPKKFGKSLVKDVERWGEWITEQLKNDPEIRELYDDDVAVYIGTWEIRCPHCGRWTPAIGNFWLARVKDGKGYKRLAYMKPERKGDEIEIRVIDLNEILDDISKANVDGNEIIFEGENYVKTVEEAVRDGKLKQSDVKIDGNTVIFEVPSANIESRRDQLTCLMCGNVIKYADENGNHHMKLKNGDFYVKFALRKYHEGDERFARQRLLVKVKVKDGDLIFEPATKEDSEKLWKAKEKVREMLEKGDLDVPSEAIPLYENRRITPILSAEKWYQFFNPRQLLTLIKIVRLIREVGRKVEEEKIAEGWNKERAFEYAEAVATYLSTAMLKYAYYNSIVTRWDSTWWKIGETMSTRGIAMNWNWTESPWFSSFGGMIKTLLAILRGVKYLTSALSSSQRTLADFTENSVKVLQGDATSLNLGEKFDVIVTDPPYADDVPYTELSDFYYVWLKRALSDVENGKLIPRFHKEAFFKRIGPKWVEIKTQWQEFAKKEVSTNPGRFMEDENKKEKAVQHFENLFSQAFVAMREHLKDDGVLVTYYAHTDPGSWINLIEAGWRRARLQITRAIPLTTESETSIVSRGKMSLDTSIVAVWRKQKEEKTVQISTLKEEIERKAKSSAREFIEYGYEGLDLLYGVMAAALEEVTKYREISSLKGPLTTEEILNEYVYPATIRGIVNAIAEIEGTGTLHSGTAMFYTAYKILFGNASLSANDIVLLRLATSTDPSELISSGVLKEKRSSSSKEYTLYTPDLLGKKALDTKEFQKFLHEKKLDPVEPKPKNSVDVLQLLEYYSLLGRSRVKEEIEKLRKMWAGEVEEALFIARLVSEYYAEIYIRKIDPVRRMKEEFASEIDRELEKDGFLEVVLMRRLLGYVGGAV
VGGQVRIAANTSSITQFLPEDLAGFMQRHPAVRIHLEEQNSSDIVTAVAENRADVGIFADRTPAAGLTTVPYRLDELVLITPPRHPLAARAQVAFADTLDCDYVGLPPATSLATRLADESARLDKSIRLRIQVRSFDAICRMVVAT
EMFYFEPVNIKKYLGSIGSELSDEVITIEQFFNLNSEYITIIDARSPREFSEKTISNAVNIPLFLTEEYETIGKLYKHEGKEVAIAKAGIIIQDGIKRIVSESLKLDPNKNLVVFCARGGMRSQSIATILKLLGFKVKRLVGGFKSYNISKT
MAFRVSVRLARDTFCLSDTVEGSVAVDVEGTSHDVAAAAPSAVRVALRAVEEAGKRHAIEHMALVTTVAGPSTAHEEAAAAALRESVNRFTTEAARRHPLLGVPVSTDSTMLVEGAASEHYTYSAGAGAASNPGGVTSETATSPPQRWEAGGHYVYPFALQLPPWLPPSYYYKPSAVKSHMSMRYTVAAFVVCGVEEADVDVVPREFRLQMTVLVPCTPLPAKAWRGSSCTSDGGAEGADKRGTCASAPLLSPVRFLLPAEIPQLLERLPAAQLVDFTVLSALPKRELQQCVERVSISPPFREKLTYHIYKYSLVLRGLLRNKPYTAVDVCITYDSGAAVLLCGRQQSVVRGGVALGLAAPHGNDSGDAPAALSSAGSGVAPGGLTVMGTVVGGEYSRAPRIHTDNHGMAPSPLGKRARGRQSPAAADPHTGDSANSLWRDGEGAGGSQLSALSACTEPAINGALRLHVRVRTGSVAVSKVRVKLLERVRCTSAPATQPNDVYTLATYTHSEKIHANTSTEFPIELALPKQFRHIAADNEKYPPPAGITTAAVHTTTWLQITFPSLHAVSEAQLAENVVLVGEDVDLTDTVPFLPCACPVRTL

Source: the DeepSol protein solubility set
